Reference: IntAct's records for PubMed 24003221

B1: Tyrosine-protein phosphatase non-receptor type 1 (Homo sapiens), P18031 (parent)
chain: MEMEKEFEQIDKSGSWAAIYQDIRHEASDFPCRVAKLPKNKNRNRYRDVSPFDHSRIKLHQEDNDYINASLIKMEEAQRSYILTQGPLPNTCGHFWEMVWEQKSRGVVMLNRVMEKGSLKCAQYWPQKEEKEMIFEDTNLKLTLISEDIKSYYTVRQLELENLTTQETREILHFHYTTWPDFGVPESPASFLNFLFKVRESGSLSPEHGPVVVHCSAGIGRSGTFCLADTCLLLMDKRKDPSSVDIKKVLLEMRKFRMGLIQTADQLRFSYLAVIEGAKFIMGDSSVQDQWKELSHEDLEPPPEHIPPPPRPPKRILEPHNGKCREFFPNHQWVKEETQEDKDCPIKEEKGSPLNAAPYGIESMSQDTEVRSRVVGGSLRGAQAASPAKGEPSLPEKDEDHALSYWKPFLVNMCVATVLTAGAYLCYRFLFNSNT

Variants of: B1
Conditions: with k2c8_human KRT8, P05787
Sequence of k2c8_human KRT8, P05787 (P05787 whole entry): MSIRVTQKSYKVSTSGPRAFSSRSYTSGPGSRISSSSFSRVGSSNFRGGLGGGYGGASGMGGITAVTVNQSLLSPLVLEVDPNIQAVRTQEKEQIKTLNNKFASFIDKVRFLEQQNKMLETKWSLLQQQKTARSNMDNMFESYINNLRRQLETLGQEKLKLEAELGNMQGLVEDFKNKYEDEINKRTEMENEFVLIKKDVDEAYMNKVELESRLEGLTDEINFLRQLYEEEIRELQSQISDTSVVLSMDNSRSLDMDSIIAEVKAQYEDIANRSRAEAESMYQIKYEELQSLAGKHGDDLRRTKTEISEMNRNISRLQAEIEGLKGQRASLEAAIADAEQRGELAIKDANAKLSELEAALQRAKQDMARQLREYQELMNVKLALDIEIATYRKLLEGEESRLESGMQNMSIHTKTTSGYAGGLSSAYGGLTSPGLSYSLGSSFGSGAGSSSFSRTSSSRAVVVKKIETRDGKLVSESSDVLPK

| Variant | effect of a mutation on the interaction |
| --- | --- |
| D181A | increasing interaction strength |
